Reference: publication PMC5690283

Target: E-Syt2 C2B domain (within the E-syt2 C2AB construct, 343-646, C611S) (human)
Experiment: single-molecule force spectroscopy (optical tweezers); the two C2 domains stand on one chain (C2AB); N-terminus held by biotin-streptavidin on a bilayer-coated silica bead or a streptavidin-coated bead, C-terminus on a DNA handle to a polystyrene bead; pulled at 10 nm/s or held at constant trap separation; 25 mM HEPES pH 7.4, 200 mM NaCl, 100 uM Ca2+, room temperature (~23 C)

force at which the two domains dissociate: 8 to 13 pN
force of reversible dissociation and re-association: 11 pN
Substance: E-Syt2 C2A domain (within the E-syt2 C2AB construct, 343-646, C611S) (domain or fragment)
